Results from the Human Domainome abundance scans (Beltran et al. 2025).
± gives the uncertainty stated by the source.

B1: Nuclear receptor subfamily 1 group D member 2, residues 103 to 171; numbered along this chain, Q14995 (parent)
chain: CKVCGDVASGFHYGVHACEGCKGFFRRSIQQNIQYKKCLKNENCSIMRMNRNRCQQCRFKKCLSVGMSR

Variants of: B1
Assay: abundance fitness (aPCA) (normalised: wild type 0, dead -1); higher = more abundant; growth selection in yeast, the domain comes from the species named
Settings: Homo sapiens

Abundance fitness of substitutions, site by site:
F59: G -0.395 ± 0.11 | R -0.477 ± 0.17 | P -0.783 ± 0.21 | I -0.355 ± 0.39 | E -0.433 ± 0.27 | S -0.809 ± 0.25 | M -0.326 ± 0.19 | D -0.8 ± 0.4 | A -0.601 ± 0.22 | L 0.107 ± 0.082 | W -0.255 ± 0.15 | T -0.512 ± 0.37 | Q -0.536 ± 0.41 | Y -0.28 ± 0.24
K61: T -0.652 ± 0.22 | H -0.681 ± 0.29 | L -0.422 ± 0.12 | S -0.769 ± 0.19 | P -0.905 ± 0.34 | Y -0.547 ± 0.44 | M -0.776 ± 0.34 | Q -0.647 ± 0.22 | G -0.385 ± 0.12 | A -0.328 ± 0.15 | F -0.608 ± 0.35 | E -0.414 ± 0.16 | C -0.717 ± 0.38 | W -0.746 ± 0.21 | V -0.886 ± 0.3
N50: Q 0.032 ± 0.11 | T -0.121 ± 0.086 | R -0.359 ± 0.073 | V -0.306 ± 0.1 | L -0.45 ± 0.082 | E -0.193 ± 0.16 | P -0.45 ± 0.16 | M -0.61 ± 0.15 | I -0.415 ± 0.12 | S -0.349 ± 0.088 | G -0.383 ± 0.11 | K -0.346 ± 0.15 | F -0.107 ± 0.13
C62: Y -0.492 ± 0.31 | R -0.667 ± 0.19 | N -0.812 ± 0.45 | V -0.665 ± 0.23 | L -0.875 ± 0.24 | T -0.948 ± 0.27 | S -0.757 ± 0.16 | P -0.843 ± 0.38 | G -0.857 ± 0.19 | E -0.456 ± 0.27 | M -0.336 ± 0.17 | A -0.015 ± 0.2
Q56: D 0.397 ± 0.14 | C -0.391 ± 0.23 | H -0.09 ± 0.18 | F -0.006 ± 0.24 | L -0.022 ± 0.08 | P -0.205 ± 0.12 | R -0.127 ± 0.076 | T -0.013 ± 0.11 | K -0.3 ± 0.064 | W 0.39 ± 0.084 | M 0.002 ± 0.11 | E 0.1 ± 0.12 | N 0.143 ± 0.18 | V -0.134 ± 0.067 | I -0.134 ± 0.22
R48: W -0.018 ± 0.1 | Y 0.066 ± 0.25 | L 0.191 ± 0.084 | K -0.005 ± 0.13 | F -0.318 ± 0.41 | G 0.089 ± 0.079 | T -0.013 ± 0.11 | V 0.241 ± 0.11 | Q 0.134 ± 0.15 | P 0.346 ± 0.082 | I 0.117 ± 0.27 | M 0.443 ± 0.22 | S -0.002 ± 0.069 | E 0.125 ± 0.13 | D 0.402 ± 0.17 | C -0.417 ± 0.23 | A 0.193 ± 0.09
M47: L -0.057 ± 0.099 | D 0.283 ± 0.11 | S 0.184 ± 0.083 | E 0.408 ± 0.15 | Y -0.482 ± 0.24 | I -0.421 ± 0.24 | K -0.185 ± 0.25 | R -0.062 ± 0.074 | T 0.307 ± 0.13 | A 0.006 ± 0.1 | H 0.07 ± 0.16 | V -0.051 ± 0.047 | P -0.237 ± 0.13
Q55: I -0.611 ± 0.19 | L -0.006 ± 0.061 | V -0.425 ± 0.13 | G 0.088 ± 0.08 | A 0.099 ± 0.077 | C -0.324 ± 0.22 | M -0.53 ± 0.16 | K -0.202 ± 0.13 | N -0.265 ± 0.18 | R -0.418 ± 0.084 | Y -0.08 ± 0.17 | E 0.251 ± 0.1 | S -0.115 ± 0.074 | P 0.027 ± 0.093
S45: T -0.133 ± 0.13 | V -0.056 ± 0.1 | N 0.261 ± 0.19 | I -0.039 ± 0.14 | A -0.424 ± 0.14 | L -0.183 ± 0.1 | W -0.54 ± 0.18 | C -0.03 ± 0.16 | K -0.646 ± 0.44 | P -0.166 ± 0.13 | M 0.156 ± 0.21 | G -0.119 ± 0.11 | R -0.259 ± 0.051 | Y -0.045 ± 0.14
E42: F -0.809 ± 0.29 | T -0.671 ± 0.19 | S -0.172 ± 0.076 | L -0.847 ± 0.15 | N -0.004 ± 0.12 | W -0.642 ± 0.25 | V -0.798 ± 0.14 | G 0.13 ± 0.063 | M -0.008 ± 0.15 | C -0.592 ± 0.26 | Q -0.23 ± 0.19 | R -0.639 ± 0.11 | K -0.109 ± 0.14 | D -0.025 ± 0.1 | H -0.231 ± 0.19 | Y -0.674 ± 0.31
C54: P -0.606 ± 0.21 | F -0.946 ± 0.19 | K -0.134 ± 0.17 | Q -0.922 ± 0.21 | E -0.77 ± 0.13 | I -0.903 ± 0.28 | R -0.668 ± 0.079 | Y -0.576 ± 0.16 | W -1.09 ± 0.22 | S -0.688 ± 0.083 | D -0.749 ± 0.23 | T -0.717 ± 0.12 | M -0.618 ± 0.14 | N -0.722 ± 0.38 | G -0.847 ± 0.1 | A -0.552 ± 0.095 | L -0.749 ± 0.087
R58: W 0.565 ± 0.11 | C 0.417 ± 0.39 | L 0.278 ± 0.06 | V -0.903 ± 0.27 | I -0.806 ± 0.49 | S -0.877 ± 0.24 | T -0.097 ± 0.1 | P -0.698 ± 0.18 | Y -0.055 ± 0.18 | E -0.474 ± 0.33 | Q -0.046 ± 0.11 | H 0.466 ± 0.11 | F 0.109 ± 0.2 | K -0.497 ± 0.22 | M 0.036 ± 0.09 | A -0.272 ± 0.12 | N -0.759 ± 0.17
R51: L -0.059 ± 0.11 | S -0.118 ± 0.12 | M -0.328 ± 0.45 | A -0.165 ± 0.12 | W -0.077 ± 0.26 | Y -0.077 ± 0.21 | G -0.001 ± 0.15 | V 0.026 ± 0.14 | I -0.417 ± 0.39 | P 0.216 ± 0.16 | K 0.044 ± 0.18 | T -0.214 ± 0.41 | E -0.091 ± 0.36 | Q -0.063 ± 0.23
I46: N -0.012 ± 0.22 | E -0.437 ± 0.24 | G -0.258 ± 0.11 | A -0.041 ± 0.13 | S -0.353 ± 0.16 | T -0.387 ± 0.22 | K -0.789 ± 0.38 | V 0.123 ± 0.12 | P 0.068 ± 0.15 | W -0.709 ± 0.26 | Q -0.39 ± 0.44 | R -0.127 ± 0.092 | H -0.162 ± 0.22 | M -0.093 ± 0.26 | L -0.282 ± 0.15 | F -0.613 ± 0.088 | Y 0.082 ± 0.22
M49: K 0.12 ± 0.23 | Y 0.128 ± 0.37 | N 0.093 ± 0.36 | S 0.076 ± 0.15 | I 0.56 ± 0.37 | D 0.428 ± 0.11 | R -0.316 ± 0.11 | F 0.195 ± 0.37 | G 0.044 ± 0.12 | T 0.147 ± 0.18 | Q 0.15 ± 0.18 | E 0.114 ± 0.12 | P -0.178 ± 0.25
C44: Y -0.183 ± 0.32
L63: N -0.911 ± 0.47 | V -0.502 ± 0.2 | I 0.268 ± 0.22 | Q -0.329 ± 0.21 | P -0.789 ± 0.33 | M -0.914 ± 0.33 | A -0.071 ± 0.26 | R -0.991 ± 0.25 | G -0.92 ± 0.24 | E -0.121 ± 0.15 | K -0.8 ± 0.28 | T -0.523 ± 0.47
N41: S -0.022 ± 0.096 | M -0.586 ± 0.17 | L -0.348 ± 0.12 | D -0.225 ± 0.24 | P -0.264 ± 0.13 | H -0.638 ± 0.25 | E -0.063 ± 0.089 | V -0.446 ± 0.13 | Q -0.285 ± 0.16 | W -0.664 ± 0.24 | G -0.036 ± 0.09 | A -0.219 ± 0.085 | Y -0.492 ± 0.35 | F -0.717 ± 0.41 | T -0.047 ± 0.12 | C -0.738 ± 0.19
C57: Q -0.59 ± 0.33 | V -1.01 ± 0.37 | A -0.738 ± 0.18 | R -1.21 ± 0.32 | K -0.687 ± 0.46 | L -0.708 ± 0.16 | F -0.806 ± 0.27 | M -1 ± 0.46 | G -0.855 ± 0.23 | D -0.689 ± 0.47 | I -0.44 ± 0.2 | S -0.836 ± 0.3
S64: D -0.051 ± 0.1 | F -0.545 ± 0.15 | A -0.048 ± 0.1 | E 0.346 ± 0.11 | C -0.469 ± 0.38 | G -0.481 ± 0.13 | H -0.449 ± 0.19
K60: N -0.056 ± 0.21 | G -0.428 ± 0.15 | E 0.033 ± 0.12 | V -0.249 ± 0.17 | F 0.044 ± 0.2 | L -0.097 ± 0.087 | A -0.009 ± 0.16 | I 0.406 ± 0.2 | W 0.021 ± 0.2 | S -0.284 ± 0.24 | M -0.141 ± 0.14
N52: L -0.14 ± 0.18 | F -0.352 ± 0.33 | M -0.419 ± 0.23 | V -0.532 ± 0.34 | S -0.395 ± 0.46 | W -0.706 ± 0.4 | I -0.325 ± 0.29 | T -0.756 ± 0.44 | E 0.139 ± 0.26 | R -0.805 ± 0.28 | A 0.394 ± 0.25 | P -0.698 ± 0.46
R53: T 0.092 ± 0.08 | P 0.142 ± 0.074 | W 0.14 ± 0.068 | E 0.412 ± 0.085 | D 0.318 ± 0.12 | K 0.028 ± 0.097 | C 0.3 ± 0.082 | Q 0.364 ± 0.077 | G 0.103 ± 0.052 | H 0.029 ± 0.2 | M 0.098 ± 0.086 | F 0.257 ± 0.2 | N 0.332 ± 0.15 | A 0.248 ± 0.058 | L 0.228 ± 0.061 | V 0.186 ± 0.063
N43: W -0.79 ± 0.31 | K -0.231 ± 0.12 | G -0.011 ± 0.071 | D -0.222 ± 0.16 | E 0.017 ± 0.086 | A 0.01 ± 0.085 | S -0.317 ± 0.094 | H -0.37 ± 0.14 | F -0.361 ± 0.19 | C -0.083 ± 0.093 | L -0.115 ± 0.078 | V -0.181 ± 0.091 | M -0.373 ± 0.15 | Q -0.061 ± 0.12 | R -0.12 ± 0.068 | P -0.472 ± 0.15 | T -0.215 ± 0.12
K40: P -0.532 ± 0.13 | V -0.273 ± 0.057 | Y 0.26 ± 0.12 | W 0.227 ± 0.047 | S 0.092 ± 0.056 | R -0.029 ± 0.048 | N 0.246 ± 0.32 | T 0.1 ± 0.079 | Q 0.206 ± 0.081
